Source: article PMC12561412, “Aptamer‐Mediated Artificial Synapses for Neuromorphic Modulation of Inflammatory Signaling via Organic Electrochemical Transistor”

Tests used:
interleukin-6 (IL-6) = interleukin-6 (IL-6) (UniProt P05231 30-212); experiment: organic electrochemical transistor, aptamer on Au gate; PBS; linear response 0.5 pM to 50 nM; also in ALB and serum; SPR: PBS-P+ pH 7.4, 5% DMSO, CM5 chip, 30 uL/min, 60 s injections, temperature not stated; OECT: PBS 1x pH 7.4 (also albumin, serum), VDS 0.1 V; conditions: protein: commercial
interferon-gamma (IFN-γ) = interferon-gamma (IFN-γ) (UniProt P01579 24-161); experiment: organic electrochemical transistor, aptamer on Au gate; no noticeable current change; SPR: PBS-P+ pH 7.4, 5% DMSO, CM5 chip, 30 uL/min, 60 s injections, temperature not stated; OECT: PBS 1x pH 7.4 (also albumin, serum), VDS 0.1 V; conditions: protein: commercial; chain copies: 2
interleukin-11 (IL-11) = target: T1, interleukin-11 (IL-11) (UniProt P20809 22-199); experiment: as above; conditions: protein: commercial
T1 sequence: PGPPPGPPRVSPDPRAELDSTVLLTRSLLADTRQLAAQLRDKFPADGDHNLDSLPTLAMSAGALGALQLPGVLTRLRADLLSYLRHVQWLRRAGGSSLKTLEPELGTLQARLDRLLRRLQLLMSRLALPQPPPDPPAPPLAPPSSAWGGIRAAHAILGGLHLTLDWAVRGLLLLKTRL

interleukin-6 (IL-6), sequence (P05231 30-212): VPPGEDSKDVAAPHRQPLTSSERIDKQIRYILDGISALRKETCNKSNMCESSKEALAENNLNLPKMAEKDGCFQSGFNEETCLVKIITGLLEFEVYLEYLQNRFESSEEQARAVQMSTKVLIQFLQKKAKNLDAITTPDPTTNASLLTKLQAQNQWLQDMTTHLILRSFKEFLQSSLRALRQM
interferon-gamma (IFN-γ), sequence (P01579 24-161): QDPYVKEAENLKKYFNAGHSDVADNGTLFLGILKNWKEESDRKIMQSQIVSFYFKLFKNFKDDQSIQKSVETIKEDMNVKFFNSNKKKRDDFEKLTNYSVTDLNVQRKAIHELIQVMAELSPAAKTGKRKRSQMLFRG

B1: IL-6 aptamer, thiolated, on Au gate (ssDNA)
DNA: GGTGGCAGGAGGACTATTTATTTGCTTTTCT
modifications: 5' C6 thiol, immobilized on gold via Au-S
B1: binds (interleukin-6 (IL-6)); no binding (interferon-gamma (IFN-γ)); no binding (interleukin-11 (IL-11)).
